B1: Ras-related protein Rab-5A (Homo sapiens), P20339 (parent)
chain: MASRGATRPNGPNTGNKICQFKLVLLGESAVGKSSLVLRFVKGQFHEFQESTIGAAFLTQTVCLDDTTVKFEIWDTAGQERYHSLAPMYYRGAQAAIVVYDITNEESFARAKNWVKELQRQASPNIVIALSGNKADLANKRAVDFQEAQSYADDNSLLFMETSAKTSMNVNEIFMAIAKKLPKNEPQNPGANSARGRGVDLTEPTQPTRNQCCSN

Variants of: B1
Conditions: with p85a_bovin PIK3R1, P23727
Sequence of p85a_bovin PIK3R1, P23727 (P23727 whole entry): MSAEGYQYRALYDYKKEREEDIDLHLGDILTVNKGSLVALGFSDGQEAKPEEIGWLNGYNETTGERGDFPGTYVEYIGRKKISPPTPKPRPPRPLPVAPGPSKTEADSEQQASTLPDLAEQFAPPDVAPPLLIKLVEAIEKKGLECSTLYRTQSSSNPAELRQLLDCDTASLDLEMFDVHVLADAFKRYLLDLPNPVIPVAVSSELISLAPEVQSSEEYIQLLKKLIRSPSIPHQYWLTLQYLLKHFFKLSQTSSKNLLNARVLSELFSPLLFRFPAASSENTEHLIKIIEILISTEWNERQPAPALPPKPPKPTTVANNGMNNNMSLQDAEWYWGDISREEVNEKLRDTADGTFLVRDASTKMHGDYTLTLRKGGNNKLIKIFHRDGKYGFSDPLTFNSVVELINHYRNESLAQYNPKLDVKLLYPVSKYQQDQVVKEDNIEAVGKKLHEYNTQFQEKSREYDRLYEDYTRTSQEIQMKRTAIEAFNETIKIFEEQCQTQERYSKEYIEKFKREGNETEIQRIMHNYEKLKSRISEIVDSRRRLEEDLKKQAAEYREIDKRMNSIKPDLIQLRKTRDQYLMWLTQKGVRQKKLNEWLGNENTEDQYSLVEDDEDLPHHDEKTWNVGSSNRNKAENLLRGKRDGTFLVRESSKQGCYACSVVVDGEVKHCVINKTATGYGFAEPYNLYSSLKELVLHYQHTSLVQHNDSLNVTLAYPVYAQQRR

Row | Variant | effect of a mutation on the interaction
1 | MASRGATRPNGPNTGNKICQFKLVLLGESAVGKNSLVLRFVKGQFHEFQESTIGAAFLTQTVCLDDTTVKFEIWDTAGQERYHSLAPMYYRGAQAAIVVYDITNEESFARAKNWVKELQRQASPNIVIALSGNKADLANKRAVDFQEAQSYADDNSLLFMETSAKTSMNVNEIFMAIAKKLPKNEPQNPGANSARGRGVDLTEPTQPTRNQCCSN [S34N] | disrupting interaction

Variants of: B1
Conditions: with p85a_bovin PIK3R1, P23727
Remark: another data set of the same source

Row | Variant | effect of a mutation on the interaction
2 | MASRGATRPNGPNTGNKICQFKLVLLGESAVGKSSLVLRFVKGQFHEFQESTIGAAFLTQTVCLDDTTVKFEIWDTAGLERYHSLAPMYYRGAQAAIVVYDITNEESFARAKNWVKELQRQASPNIVIALSGNKADLANKRAVDFQEAQSYADDNSLLFMETSAKTSMNVNEIFMAIAKKLPKNEPQNPGANSARGRGVDLTEPTQPTRNQCCSN [Q79L] | decreasing interaction

Reference: IntAct's records for PubMed 15377662
